Reference: paper PMC9157457 (The Journal of Biological Chemistry, 2022)

Biological target: the molecule itself
Assay: cryo-EM structure

B1: Photobacterium phosphoreum LuxC (acyl-CoA reductase) (enzyme)
chain: IKKIPMIIGGAERDTSEHEYRELTLNSYKVSIPIINQDDVEAIKSQSVENNLNINQIVNFLYTVGQKWKSENYSRRLTYIRDLVRFLGYSPEMAKLEANWISMILSSKSALYDIVETELGSRHIVDEWLPQGDCYVKAMPKGKSVHLLAGNVPLSGVTSIIRAILTKNECIIKTSSADPFTAIALASSFIDTDEHHPISRSMSVMYWSHNEDIAIPQQIMNCADVVVSWGGYDAIKWATEHTPVNVDILKFGPKKSIAIVDNPVDITASAIGVAHDICFYDQQACFSTQDIYYIGDNIDAFFDELVEQLNLYMDILPKGDQTFDEKASFSLIEKECQFAKYKVEKGDNQSWLLVKSPLGSFGNQPLARSAYIHHVSDISEITPYIENRITQTVTVTPWESSFKYRDVLASHGAERIVESGMNNIFRVGGAHDGMRPLQRLVKYISHERPYTYSTKDVAVKIEQTRYLEEDKFLVFVP
  stoichiometry N: 4
